The assay “mu (MOP) (h) (human)” concerns the target mu (MOP) (h) (human (printed (h))) (UniProt P35372). Description: radioligand displacement, reference compound of the panel. For orientation: Displacement assays read how much labelled ligand stays bound in the presence of the test substance.
The target in another assay is NMDA. Put plainly: radioligand displacement, 10 uM compound.
The target of assay [1] is KV channel. Description: radioligand displacement, 10 uM compound.
The target in the next assay is Na+ channel (site 2). Put plainly: radioligand displacement, 10 uM compound.
The target of assay [2] is Ca2+ channel (L, dihydropyridine site). Description: radioligand displacement, 10 uM compound.
A further assay deals with MAO-A. Put plainly: radioligand displacement, 10 uM compound.
For a further assay, the target named is BZD (central). Description: radioligand displacement, 10 uM compound.
Assay [3] addresses PDE4D2 (h) (human (printed (h))) (UniProt Q08499).
For assay [4], the target named is T1, COX2(h) (human (printed (h))) (UniProt P35354).
T1 sequence: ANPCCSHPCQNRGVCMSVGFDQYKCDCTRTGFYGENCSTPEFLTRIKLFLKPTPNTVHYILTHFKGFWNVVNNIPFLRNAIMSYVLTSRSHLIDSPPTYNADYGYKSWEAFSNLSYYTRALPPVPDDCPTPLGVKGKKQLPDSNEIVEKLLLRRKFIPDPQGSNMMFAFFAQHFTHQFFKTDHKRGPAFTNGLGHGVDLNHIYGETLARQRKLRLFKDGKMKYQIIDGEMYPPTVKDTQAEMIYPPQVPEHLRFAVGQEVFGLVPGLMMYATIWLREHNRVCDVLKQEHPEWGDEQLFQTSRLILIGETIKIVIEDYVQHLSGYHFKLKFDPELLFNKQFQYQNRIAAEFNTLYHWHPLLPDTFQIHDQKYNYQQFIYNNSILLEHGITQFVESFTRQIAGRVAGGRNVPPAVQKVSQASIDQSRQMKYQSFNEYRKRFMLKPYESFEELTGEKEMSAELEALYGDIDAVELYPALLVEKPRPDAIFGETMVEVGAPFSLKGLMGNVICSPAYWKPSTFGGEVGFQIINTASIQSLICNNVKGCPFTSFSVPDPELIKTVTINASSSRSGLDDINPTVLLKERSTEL

The target in assay [5] is Acetylcholinesterase (h) (human (printed (h))) (UniProt P22303).
Assay [6] deals with PDE3A (h) (human (printed (h))) (UniProt Q14432).
Assay [7] has as its target Lck kinase (h) (human (printed (h))) (UniProt P06239).
The target of assay [8] is COX1(h) (human (printed (h))) (UniProt P23219).
In assay [9] the target is recombinant human PREP (R&D systems, #4308-SE) (human).
Assay [10] deals with Recombinant human DPP4 (R&D systems, #9168-SE) (human).
The assay “delta (DOP) (h) (human)” addresses delta (DOP) (h) (human (printed (h))) (UniProt P41143). Description: radioligand displacement, reference compound of the panel.
For assay [11], the target named is KV channel. Described as above.

Chain of PDE4D2 (h) (human (printed (h))) (Q08499 303-809): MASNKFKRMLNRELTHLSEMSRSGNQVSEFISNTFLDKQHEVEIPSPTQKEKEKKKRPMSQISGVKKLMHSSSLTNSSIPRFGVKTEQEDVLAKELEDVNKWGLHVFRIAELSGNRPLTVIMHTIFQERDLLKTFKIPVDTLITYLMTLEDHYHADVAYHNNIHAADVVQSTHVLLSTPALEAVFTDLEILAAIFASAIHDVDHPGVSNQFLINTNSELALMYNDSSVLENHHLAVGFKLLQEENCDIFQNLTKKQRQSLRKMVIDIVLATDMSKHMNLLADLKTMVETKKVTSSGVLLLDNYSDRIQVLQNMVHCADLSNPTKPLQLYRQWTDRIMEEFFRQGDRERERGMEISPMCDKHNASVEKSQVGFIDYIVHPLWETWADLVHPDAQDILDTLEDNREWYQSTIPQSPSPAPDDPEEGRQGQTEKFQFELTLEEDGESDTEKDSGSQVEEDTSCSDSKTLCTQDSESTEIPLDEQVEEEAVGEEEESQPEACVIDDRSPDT
Chain of COX1(h) (human (printed (h))) (P23219 24-599 limits assumed): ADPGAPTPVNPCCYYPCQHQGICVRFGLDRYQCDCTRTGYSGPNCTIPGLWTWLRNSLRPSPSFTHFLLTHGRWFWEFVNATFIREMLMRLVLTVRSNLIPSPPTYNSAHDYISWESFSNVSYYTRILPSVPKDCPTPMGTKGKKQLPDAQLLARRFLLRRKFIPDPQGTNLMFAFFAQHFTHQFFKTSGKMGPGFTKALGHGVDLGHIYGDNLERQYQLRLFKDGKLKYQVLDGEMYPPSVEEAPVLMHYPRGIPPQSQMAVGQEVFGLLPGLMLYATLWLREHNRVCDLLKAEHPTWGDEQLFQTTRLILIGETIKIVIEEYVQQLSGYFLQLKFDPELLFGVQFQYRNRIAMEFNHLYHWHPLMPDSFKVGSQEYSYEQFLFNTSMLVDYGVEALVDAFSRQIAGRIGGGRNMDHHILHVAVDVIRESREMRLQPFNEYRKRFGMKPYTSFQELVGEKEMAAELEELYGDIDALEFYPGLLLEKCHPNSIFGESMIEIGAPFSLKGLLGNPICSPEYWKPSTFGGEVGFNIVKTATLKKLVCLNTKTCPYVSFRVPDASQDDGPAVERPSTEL
Chain of recombinant human PREP (R&D systems, #4308-SE) (human) (chain, as listed by the source limits assumed): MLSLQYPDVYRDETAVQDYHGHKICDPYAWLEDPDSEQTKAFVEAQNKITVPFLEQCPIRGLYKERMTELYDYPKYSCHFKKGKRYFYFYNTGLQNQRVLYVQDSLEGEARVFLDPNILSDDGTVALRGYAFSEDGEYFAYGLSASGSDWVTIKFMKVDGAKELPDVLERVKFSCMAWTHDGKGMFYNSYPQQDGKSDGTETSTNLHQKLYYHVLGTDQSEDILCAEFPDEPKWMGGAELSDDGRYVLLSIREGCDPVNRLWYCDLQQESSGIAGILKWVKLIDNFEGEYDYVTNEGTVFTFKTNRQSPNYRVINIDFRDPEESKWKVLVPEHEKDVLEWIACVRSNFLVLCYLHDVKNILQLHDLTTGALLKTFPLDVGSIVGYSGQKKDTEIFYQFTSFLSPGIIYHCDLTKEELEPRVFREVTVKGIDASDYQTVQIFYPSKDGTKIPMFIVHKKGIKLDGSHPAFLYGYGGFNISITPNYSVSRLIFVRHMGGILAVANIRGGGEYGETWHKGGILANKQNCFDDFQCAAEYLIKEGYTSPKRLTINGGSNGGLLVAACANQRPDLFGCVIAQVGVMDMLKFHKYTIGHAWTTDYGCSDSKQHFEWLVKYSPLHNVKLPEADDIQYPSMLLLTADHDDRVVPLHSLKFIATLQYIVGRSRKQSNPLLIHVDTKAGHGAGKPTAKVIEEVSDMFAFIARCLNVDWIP

What is called Ki is a measure of affinity in units of concentration, obtained from inhibition or displacement. Substance DAMGO (peptide) yielded a Ki with mu (MOP) (h) (human) of 0.37 nM.

For “Hex-[Cys(tMeBn(DOTA-PP))-Pro-Pro-Thr-Gln-Phe-Cys]-Asp-NH2 (3BP-3407) (peptide)”, the % Inhibition of Specific Binding was 9% with NMDA; -5% with KV channel [1]; -7% with Na+ channel (site 2); 42% in [2]; -5% with MAO-A; -9% with BZD (central). For the same substance, the % inhibition of control enzyme activity in [3] is -5%; in assay [4] it was -14%; in assay [5] it was -6%; in assay [6], -3%; in assay [7], 10%; in assay [8] it was 10%. Also, the pIC50 (PREP) in assay [9] is < 6 pIC50. Further, in assay [10], the pIC50 (DPP4) is < 6 pIC50.

DPDPE (peptide) displayed a Ki with delta (DOP) (h) (human) of 1.2 nM.

In turn, “alpha-dendrotoxin (from UniProt P00980) (peptide)” yielded an inhibition constant (Ki) in the assay with KV channel [11] of 0.097 nM.

Source of the values: patent US20220315554A1, “COMPOUNDS COMPRISING A […] LIGAND AND USE THEREOF” (priority 2019, published 2022).
